Patent publication US20230407297A1, “BIOENGINEERED WNT5A THERAPEUTICS FOR ADVANCED CANCERS” (The Regents of the University of California, priority 2020, published 2023)
Entries after “also recorded” stand apart in the source; their conditions may differ.

Legend:
LuCaP 35CR organoids = test: LuCaP 35CR organoids, ex vivo 3D Matrigel; format: cell-based; settings: single treatment
Excerpt: (§1) FIGS. 9A-9E. Targeting Wnt5A by BERA-Wnt5a siRNA resensitizes LuCaP35CR PDX organoids and tumor growth to enzalutamide treatment. FIG. 9A: Organoids derived from the LuCaP PDX model were established in an ex vivo 3D Matrigel format and treated with bioengineered BERA-Wnt5a siRNA. […] FIG. 9D: Mouse body weight was unaffected by all of the treatments.
(§2) To examine if targeting Wnt5a enhances enzalutamide treatment in resistant prostate cancer, we examined the combinational effects of targeting Wnt5a and enzalutamide in an ex vivo model. Organoids derived from the LuCaP PDX model were established in an ex vivo 3D Matrigel format and treated with bioengineered BERA-Wnt5a siRNA. […] To further determine the anti-tumor effects of Wnt5a inhibition in vivo, we employed a LuCaP 35CR patient derived xenograft model, which was treated with bioengineered BERA-Wnt5a siRNA.

LuCaP 35CR PDX tumors = test: LuCaP 35CR patient derived xenograft model, combination with enzalutamide (Example 3); format: in vivo, mouse; settings: single treatment
Excerpt: as §1, §2

Wnt5A = Wnt5A expression in CWR22rv1 cells; format: cell-based
C4-2B MDVR cells = test: C4-2B MDVR cell number, combination with antiandrogens; format: cell-based
Procedure: (§3) FIGS. 5A-5B. […] Resistant C4-2B MDVR and PS1172 CRC prostate cancer cells were treated with either enzalutamide (Enza) or Wnt5a siRNA (#1) or the combination (#1+Enza) for three days and 5 days, and the cell numbers were determined.
FIGS. 6A-6C. […] Resistant C4-2B MDVR prostate cancer cells were treated with either enzalutamide (Enza, 20 uM) or tRNA-1 (10 nM) or tRNA-2 (10 nM) or the combination (combination) for 3 days and 6 days, and the cell numbers were determined.
FIGS. 7A-7B. Combination of tRNA Wnt5a with antiandrogens in C4-2B MDVR cells. C4-2B MDVR cells were treated with tRNA Wnt5a and antiandrogens such as apalutamide (Apa), darolutamide (Daro), enzalutamide (enza) individually or combination for 3 days and 6 days and the cell number was determined.
(§4) Enzalutamide resistant C4-2B MDVR cells and PS1172 CRC cells were treated with either enzalutamide (20 μM) or Wnt5a siRNA (#1) or their combination (enza+#1) for 3 days and 5 days (C4-2B MDVR cells) or 3 days and 6 days (PS1172 CRC cells), and the cell numbers were determined.
Resistant C4-2B MDVR prostate cancer cells were treated with either enzalutamide (Enza, 20 uM) or tRNA-1 (10 nM) or tRNA-2 (10 nM) or their combination for 3 days and 6 days, and the cell numbers were determined.
Knockdown of Wnt5a by tRNA-Wnt5a siRNA enhances anti-androgen (enzalutamide, apalutamide, darolutamide) treatments (FIG. 7A). Resistant C4-2B MDVR cells were treated with tRNA Wnt5a siRNA-2 and antiandrogens such as apalutamide (Apa), darolutamide (Daro), enzalutamide (enza) individually or their combination for 3 days and 6 days and the cell number was determined.

PS1172 CRC cells = test: PS1172 CRC cell number, combination with enzalutamide; format: cell-based; settings: Wnt5a siRNA + enzalutamide 20 μM, 3 days and 6 days
Procedure: as §3, §4

[1] = test system: enzalutamide resistant CWR22rv1 cells; test: CWR22rv1 cell growth, alone and with enzalutamide; format: cell-based; settings: for improvement of enzalutamide treatment: CWR22rv1 cells, combined with enzalutamide; for cell growth: enzalutamide resistant CWR22rv1 cells, single agent
Excerpt: In addition to spectrometry and gel electrophoresis analyses of target Wnt5A-siRNAs during the purification described above, we conducted HPLC analysis to validate the purity of isolated siRNAs and LC-MS studies to verify RNA sequence and identify possible posttranscriptional modifications.

Molecule: CNC(=O)c1ccc(N2C(=S)N(c3ccc(C#N)c(C(F)(F)F)c3)C(=O)C2(C)C)cc1F [enzalutamide]
- organoid response (LuCaP 35CR organoids): resistant
- PSA expression (LuCaP 35CR PDX tumors): without reaching significance
- tumor growth (LuCaP 35CR PDX tumors): resistant

Molecule: Wnt5a siRNA (#1): siRNA specific to Wnt5a, 5′-ACAAACUGGUCCACGAUCUCCGUGC-3′ (expressed or natural sequence)
- Wnt5A expression (Wnt5A): downregulated Wnt5A expression
- effect on enzalutamide treatment (cell numbers) (C4-2B MDVR cells; Wnt5a siRNA + enzalutamide 20 μM, 3 days and 5 days): synergistically enhanced enzalutamide treatment; also recorded: re-sensitize cells to enzalutamide
- effect on enzalutamide treatment (cell numbers) (PS1172 CRC cells): synergistically enhanced enzalutamide treatment; also recorded: re-sensitize cells to enzalutamide

B1: tRNA-siWnt5A-1: bioengineered tRNA-pre-miRNA chimera (human tRNA Leu / pre-miR-34a carrier) carrying Wnt5a siRNA #1, FIG. 8A, SEQ ID NO:20 (nucleic acid)
chain: NNCNCAACANAAAAAACNNNGNGNAANACNNGNAACGCNGAANNCACCAGGANGGCCGAGNGGNNAAGGCGNNGGACNGGCCAGCNGNGAGNGNNNCNNACAAACUGGUCCACGAUCUCCGNGNGAGCAANAGNAAGGAAUGGAGAUCGGGAUCCAGUUUGCUAGAAGNGCNGCACGNNGNNGGCCCGANCCAANGGACANANGNCCGCGNGGGNNCGAACCCCACNCCNGGNACCACNGCAGANCCNNAGCGAAAGCNAAGGANNNNNNNN
modifications: modified_base (1)..(2) t or u; modified_base (4)..(4) t or u; modified_base (10)..(10) t or u; modified_base (18)..(20) t or u; modified_base (22)..(22) t or u; modified_base (24)..(24) t or u; modified_base (27)..(27) t or u; modified_base (30)..(31) t or u; modified_base (33)..(33) t or u; modified_base (39)..(39) t or u; modified_base (43)..(44) t or u; modified_base (53)..(53) t or u; modified
- improvement of enzalutamide treatment [1]: improved enzalutamide treatment; also recorded: improved enza treatment
- cell growth [1]: inhibited cell growth
- Wnt5A expression (Wnt5A): downregulated Wnt5A expression
- effect on enzalutamide treatment (cell numbers) (C4-2B MDVR cells; chimera 10 nM + Enza 20 uM, 3 days and 6 days, listed as tRNA-Wnt5a siRNA-1): enhanced enzalutamide; also recorded: synergizes enzalutamide

B2: tRNA-siWnt5A-2: bioengineered tRNA-pre-miRNA chimera (human tRNA Leu / pre-miR-34a carrier) carrying Wnt5a siRNA #2, FIG. 8B, SEQ ID NO:21 (nucleic acid)
chain: NNCNCAACANAAAAAACNNNGNGNAANACNNGNAACGCNGAANNCACCAGGANGGCCGAGNGGNNAAGGCGNNGGACNGGCCAGCNGNGAGNGNNNCNNCUAGGAAGAACUUGGAAGACAUNGNGAGCAANAGNAAGGAAGUGUCUUCCGGUCUUUUCCUACUAGAAGNGCNGCACGNNGNNGGCCCGANCCAANGGACANANGNCCGCGNGGGNNCGAACCCCACNCCNGGNACCACNGCAGANCCNNAGCGAAAGCNAAGGANNNNNNNN
modifications: modified_base (1)..(2) t or u; modified_base (4)..(4) t or u; modified_base (10)..(10) t or u; modified_base (18)..(20) t or u; modified_base (22)..(22) t or u; modified_base (24)..(24) t or u; modified_base (27)..(27) t or u; modified_base (30)..(31) t or u; modified_base (33)..(33) t or u; modified_base (39)..(39) t or u; modified_base (43)..(44) t or u; modified_base (53)..(53) t or u; modified
- improvement of enzalutamide treatment [1]: improved enzalutamide treatment; also recorded: improved enza treatment
- cell growth [1]: inhibited cell growth
- Wnt5A expression (Wnt5A): downregulated Wnt5A expression
- effect on enzalutamide treatment (cell numbers) (C4-2B MDVR cells; chimera 10 nM + Enza 20 uM, 3 days and 6 days, listed as tRNA-Wnt5a siRNA-2): enhanced enzalutamide; also recorded: synergizes enzalutamide
- effect on apalutamide treatment (cell number) (C4-2B MDVR cells; combination with apalutamide, 3 days and 6 days): enhances
- effect on darolutamide treatment (cell number) (C4-2B MDVR cells; combination with darolutamide, 3 days and 6 days): enhances
- effect on enzalutamide treatment (cell number) (C4-2B MDVR cells; combination with enzalutamide, 3 days and 6 days): enhances
